# Assay results reported in patent US20120316071A1 (published 2012).
# Residue numbers refer to the chain shown, from its start. Names and notes keep the numbering of the source.
# B1: Fab VH5-51_IGHD5-18*01>3_IGHJ4*01 G100K/G104T & V3-4_IGLJ1*01 V91T (Fab, V domains shown)
# VH: EVQLVQSGAEVKKPGESLKISCKGSGYSFTSYWIGWVRQMPGKGLEWMGIIYPGDSDTRYSPSFQGQVTISADKSISTAYLQWSSLKASDTAMYYCARRKYSYTYDYFDYWGQGTLVTVSS
# VL: QTVVTQEPSFSVSPGGTVTLTCGLSSGSVSTSYYPSWYQQTPGQAPRTLIYSTNTRSSGVPDRFSGSILGNKAALTITGAQADDESDYYCTLYMGSGISYVFGTGTKVTVL
# notes: Fab; expressed with CH1 (His and Flag tags) and lambda CL from the expression plasmids; also called H:KT & V91T
# B2: Fab VH5-51_IGHD5-18*01>3_IGHJ4*01 G100K/G104T & V3-4_IGLJ1*01 V91C (Fab, V domains shown)
# VH: B1 VH
# VL: B1 VL with T91C
# notes: Fab; expressed with CH1 (His and Flag tags) and lambda CL from the expression plasmids; also called H:KT & V91C
# B3: Fab VH5-51_IGHD5-18*01>3_IGHJ4*01 G100K/G104T & V3-4_IGLJ1*01 M94N (Fab, V domains shown)
# VH: B1 VH
# VL: B1 VL with T91V, M94N
# notes: Fab; expressed with CH1 (His and Flag tags) and lambda CL from the expression plasmids; also called H:KT & M94N
# B4: Fab VH5-51_IGHD5-18*01>3_IGHJ4*01 G100K/G104T & V3-4_IGLJ1*01 V91I (Fab, V domains shown)
# VH: B1 VH
# VL: B1 VL with T91I
# notes: Fab; expressed with CH1 (His and Flag tags) and lambda CL from the expression plasmids; also called H:KT & V91I
# B5: Fab VH5-51_IGHD5-18*01>3_IGHJ4*01 G100K/G104T & V3-4_IGLJ1*01 V91N (Fab, V domains shown)
# VH: B1 VH
# VL: B1 VL with T91N
# notes: Fab; expressed with CH1 (His and Flag tags) and lambda CL from the expression plasmids; also called H:KT & V91N
# B6: Fab VH5-51_IGHD5-18*01>3_IGHJ4*01 G100K/G104T & V3-4_IGLJ1*01 M94P (Fab, V domains shown)
# VH: B1 VH
# VL: B1 VL with T91V, M94P
# notes: Fab; expressed with CH1 (His and Flag tags) and lambda CL from the expression plasmids; also called H:KT & M94P
# B7: Fab VH5-51_IGHD5-18*01>3_IGHJ4*01 G100K/G104T & V3-4_IGLJ1*01 S96G (Fab, V domains shown)
# VH: B1 VH
# VL: B1 VL with T91V, S96G
# notes: Fab; expressed with CH1 (His and Flag tags) and lambda CL from the expression plasmids; also called H:KT & S96G
# B8: Fab VH5-51_IGHD5-18*01>3_IGHJ4*01 G100K/G104T & V3-4_IGLJ1*01 M94E (Fab, V domains shown)
# VH: B1 VH
# VL: B1 VL with T91V, M94E
# notes: Fab; expressed with CH1 (His and Flag tags) and lambda CL from the expression plasmids; also called H:KT & M94E
# B9: Fab VH5-51_IGHD5-18*01>3_IGHJ4*01 G100K/G104T & V3-4_IGLJ1*01 M94R (Fab, V domains shown)
# VH: B1 VH
# VL: B1 VL with T91V, M94R
# notes: Fab; expressed with CH1 (His and Flag tags) and lambda CL from the expression plasmids; also called H:KT & M94R
# B10: Fab VH5-51_IGHD5-18*01>3_IGHJ4*01 G100K/G104T & V3-4_IGLJ1*01 V91W (Fab, V domains shown)
# VH: B1 VH
# VL: B1 VL with T91W
# notes: Fab; expressed with CH1 (His and Flag tags) and lambda CL from the expression plasmids; also called H:KT & V91W
# B11: Fab VH5-51_IGHD5-18*01>3_IGHJ4*01 G100K/G104T & V3-4_IGLJ1*01 M94G (Fab, V domains shown)
# VH: B1 VH
# VL: B1 VL with T91V, M94G
# notes: Fab; expressed with CH1 (His and Flag tags) and lambda CL from the expression plasmids; also called H:KT & M94G
# B12: Fab VH5-51_IGHD5-18*01>3_IGHJ4*01 G100K/G104T & V3-4_IGLJ1*01 V91G (Fab, V domains shown)
# VH: B1 VH
# VL: B1 VL with T91G
# notes: Fab; expressed with CH1 (His and Flag tags) and lambda CL from the expression plasmids; also called H:KT & V91G
# B13: Fab VH5-51_IGHD5-18*01>3_IGHJ4*01 G100K/G104T & V3-4_IGLJ1*01 V91R (Fab, V domains shown)
# VH: B1 VH
# VL: B1 VL with T91R
# notes: Fab; expressed with CH1 (His and Flag tags) and lambda CL from the expression plasmids; also called H:KT & V91R
# B14: Fab VH5-51_IGHD5-18*01>3_IGHJ4*01 G100K/G104T & V3-4_IGLJ1*01 V91E (Fab, V domains shown)
# VH: B1 VH
# VL: B1 VL with T91E
# notes: Fab; expressed with CH1 (His and Flag tags) and lambda CL from the expression plasmids; also called H:KT & V91E
# B15: Fab VH5-51_IGHD5-18*01>3_IGHJ4*01 G100K/G104T & V3-4_IGLJ1*01 M94L (Fab, V domains shown)
# VH: B1 VH
# VL: B1 VL with T91V, M94L
# notes: Fab; expressed with CH1 (His and Flag tags) and lambda CL from the expression plasmids; also called H:KT & M94L
# B16: Fab VH5-51_IGHD5-18*01>3_IGHJ4*01 G100K/G104T & V3-4_IGLJ1*01 M94V (Fab, V domains shown)
# VH: B1 VH
# VL: B1 VL with T91V, M94V
# notes: Fab; expressed with CH1 (His and Flag tags) and lambda CL from the expression plasmids; also called H:KT & M94V
# B17: Fab VH5-51_IGHD5-18*01>3_IGHJ4*01 G100K/G104T & V3-4_IGLJ1*01 V91H (Fab, V domains shown)
# VH: B1 VH
# VL: B1 VL with T91H
# notes: Fab; expressed with CH1 (His and Flag tags) and lambda CL from the expression plasmids; also called H:KT & V91H
# B18: Fab VH5-51_IGHD5-18*01>3_IGHJ4*01 G100K/G104T & V3-4_IGLJ1*01 M94D (Fab, V domains shown)
# VH: B1 VH
# VL: B1 VL with T91V, M94D
# notes: Fab; expressed with CH1 (His and Flag tags) and lambda CL from the expression plasmids; also called H:KT & M94D
# B19: Fab VH1-46_IGHD6-6*01_IGHJ1*01 S102A/S103P/S104F/H111F I51V/N52L/S54T/G56H (APFF VLTH) & L6_IGKJ1*01 S28N/S30D/S31H S52L/A55S (NDH LS) (Fab, V domains shown)
# VH: QVQLVQSGAEVKKPGASVKVSCKASGYTFTSYYMHWVRQAPGQGLEWMGIVLPTGHSTSYAQKFQGRVTMTRDTSTSTVYMELSSLRSEDTAVYYCAREEYAPFSAEYFQFWGQGTLVTVSS
# VL: EIVLTQSPATLSLSPGERATLSCRASQNVDHYLAWYQQKPGQAPRLLIYDALNRSTGIPARFSGSGSGTDFTLTISSLEPEDFAVYYCQQRSNWPPWTFGQGTKVEIKR
# notes: Fab with CH1 (Plasmid A, His6 and Flag tags) and kappa CL (Plasmid C); also called H:APFF VLTH & L:NDH LS
# Biological target: T1, Recombinant Human DLL4 (delta-like protein 4) (human, UniProt Q9NR61 27-524)
# T1 construct: Bought recombinant human DLL4 (R&D Systems Cat#1506-D4/CF); also called rHuman DLL4
# Experiment: ELISA, DLL4-coated plate, 100 nM Fab
row,ELISA Signal [100 nM Fab],Binder
1,0.01,B1
2,0.02,B2
3,0.01,B3
4,0.01,B4
5,0,B5
6,0.01,B6
7,0.01,B7
8,0.01,B8
9,0.01,B9
10,0,B10
11,0.01,B11
12,0.01,B12
13,0,B13
14,0,B14
15,0.02,B15
16,0.02,B16
17,0.01,B17
18,0.01,B18

# Biological target: T1, Recombinant Human DLL4 (delta-like …)
# Experiment: ECL (MSD) binding assay, immobilised DLL4, 10 nM Fab;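 note: fab binding read as electrochemiluminescence via a TAG-labelled detection antibody, 1 h incubations at 20 °C, antigen signal compared with each well's blank, ratio of at least 4 scored as binder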
row,ECL Signal [10 nM Fab],Binder
1,32700,B1
2,38300,B2
3,51300,B3
4,51200,B4
5,46700,B5
6,39900,B6
7,40400,B7
8,32500,B8
9,77800,B9
10,12500,B10
11,20300,B11
12,45300,B12
13,13400,B13
14,22500,B14
15,46800,B15
16,47300,B16
17,27100,B17
18,52700,B18

# Biological target: T2, Recombinant Human DLL4 (delta-like protein 4) (human, UniProt Q9NR61 27-524)
# T2 construct: Bought recombinant human DLL4 (R&D Systems Cat#1506-D4/CF); also called rHuman DLL4; Delta-like ligand 4
# Experiment: SPR, Fab on recombinant human DLL4
Kd,koff,kon,Binder
1.7 nM,0.00109 s⁻¹,684000 M⁻¹ s⁻¹,B19
